According to patent US20110053268A1, “METHOD FOR DIAGNOSIS OF ABNORMAL IRON METABOLISM USING ACTIVE HEPCIDIN AS INDICATOR” (priority 2006, published 2011):
Entries after “also recorded” stand apart in the source; their conditions may differ.

Experiments:
IL-6 receptor = molecular target: T1, IL-6 receptor (Homo sapiens, UniProt P08887); assay: Tocilizumab treatment of two Castleman's disease cases, serum and urine hepcidin monitored by SELDI-TOF-MS; format: in vivo
T1 construct: before and after tocilizumab treatment in two Castleman's disease cases; from tissue; host or cells: patients with Castleman's disease (in vivo treatment)
T1 sequence (P08887 20-468): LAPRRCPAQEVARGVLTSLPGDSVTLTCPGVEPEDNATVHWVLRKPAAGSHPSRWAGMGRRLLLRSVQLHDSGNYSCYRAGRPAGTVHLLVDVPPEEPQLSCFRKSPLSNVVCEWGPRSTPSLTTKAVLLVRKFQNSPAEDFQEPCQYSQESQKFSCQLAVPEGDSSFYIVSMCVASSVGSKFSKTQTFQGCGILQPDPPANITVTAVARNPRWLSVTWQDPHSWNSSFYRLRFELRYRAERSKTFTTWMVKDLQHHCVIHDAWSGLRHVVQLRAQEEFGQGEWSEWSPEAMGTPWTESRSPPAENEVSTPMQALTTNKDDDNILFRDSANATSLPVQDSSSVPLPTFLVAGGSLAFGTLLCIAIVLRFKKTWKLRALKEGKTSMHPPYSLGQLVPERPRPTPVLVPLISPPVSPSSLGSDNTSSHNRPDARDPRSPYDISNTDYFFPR
Method: The present inventor monitored serum and urine hepcidin before and after tocilizumab treatment in two Castleman's disease cases who began treatment with tocilizumab (registered trademark: Actemra), from 7 days before treatment to 14 days after the start of the treatment. The measurement of hepcidin was performed in the manner described in Example 1.

[1] = Clearance of serum peptides by hemodialysis (SELDI-TOF-MS before and after hemodialysis); format: in vivo, human; details: hemodialysis patients, serum before vs after hemodialysis
Method: Serum samples were obtained from 40 hemodialysis patients before and after hemodialysis. All patients were receiving hemodialysis treatment three times a week. […] Serum samples were separated by centrifugation (3,000 rpm) and stored at −80° C. until assayed.
SELDI analysis was performed according to the manufacturer's manual, with some modifications. In brief, serum and urine samples were diluted 20-fold and 10-fold, respectively, with binding buffer (phosphate buffered saline, pH 7.4). Using a bioprocessor, 40 μl of diluted samples were applied onto different arrays of an IMAC 30-Cu chip pretreated with 100 mM copper sulfate binding buffer and the chip was incubated at room temperature for 30 min with constant horizontal shaking. For confirmation of the reproducibility, each sample was applied to two separate spots on an IMAC 30-Cu chip. Unbound proteins were removed by washing three times with binding buffer for 5 min. The arrays were rinsed twice with 400 μl of water, were air-dried, and 0.5 μl of alpha-cyano-4-hydroxy-cinnamic acid (CHCA; Ciphergen) in 50% acetonitrile and 0.5% trifluoroacetic acid was added twice onto the surface of the chip. Next, the arrays were analyzed using the Ciphergen ProteinChip® Reader PBS II. The proteins with CHCA were ionized and their molecular masses were determined by TOF analysis. The mass-to-charge ratio (m/z) of each of the proteins/peptides captured on the array surface was determined according to externally calibrated standards: Arg8-vasopressin (1,084.25 Da), somatostatin (1,637.9 Da), dynorphin (2,147.5 Da), bovine insulin beta-chain (3,495.94 Da), human insulin (5,807.65 Da), bovine ubiquitin (8,564.8 Da), and bovine cytochrome C (12,230.9 Da). The mass spectra of the samples were generated using an average of 80 laser shots at a laser intensity of 180 and a detector sensitivity of 10. Synthetic hepcidin-25 (Peptide Institute Inc, Osaka) was used as a marker of 2,789 Da. […]

[2] = Intravenous iron administration (iron loading) in a hemodialysis patient, serial serum profiling
Text: Serum samples were obtained from 40 hemodialysis patients before and after hemodialysis. All patients were receiving hemodialysis treatment three times a week. In addition, serum samples were collected from patients with acute pyelonephritis (two patients), pneumonia (two patients), and sepsis (two patients), as well as from 16 healthy volunteers with normal renal function. Serial samples of serum and urine obtained from two patients with acute pyelonephritis and two hemodialysis patients who had received intravenous iron administration for iron deficiency were also analyzed. Red blood cell (RBC) count, hemoglobin (Hb), hematocrit (Ht), plasma iron, and ferritin were evaluated for the clinical assessment of iron status and anemia. Serum samples were separated by centrifugation (3,000 rpm) and stored at −80° C. until assayed. Informed consent for the analysis of the protein profiling of serum and/or urine was obtained from all the participants.
For preliminary trials, multiple types of protein chips were used with various surface characteristics, which included weak cation exchange, strong anion exchange, and immobilized metal affinity capture for protein molecules that bind divalent cationic copper. The present inventor eventually chose the mobilized metal affinity capture ProteinChip® array (IMAC 30-Cu) for the entire study because of its reproducibility in detecting protein species from serum and urine. SELDI analysis was performed according to the manufacturer's manual, with some modifications. In brief, serum and urine samples were diluted 20-fold and 10-fold, respectively, with binding buffer (phosphate buffered saline, pH 7.4). Using a bioprocessor, 40 μl of diluted samples were applied onto different arrays of an IMAC 30-Cu chip pretreated with 100 mM copper sulfate binding buffer and the chip was incubated at room temperature for 30 min with constant horizontal shaking. For confirmation of the reproducibility, each sample was applied to two separate spots on an IMAC 30-Cu chip. Unbound proteins were removed by washing three times with binding buffer for 5 min. […] Next, the arrays were analyzed using the Ciphergen ProteinChip® Reader PBS II. The proteins with CHCA were ionized and their molecular masses were determined by TOF analysis. The mass-to-charge ratio (m/z) of each of the proteins/peptides captured on the array surface was determined according to externally calibrated standards: Arg8-vasopressin (1,084.25 Da), somatostatin (1,637.9 Da), dynorphin (2,147.5 Da), bovine insulin beta-chain (3,495.94 Da), human insulin (5,807.65 Da), bovine ubiquitin (8,564.8 Da), and bovine cytochrome C (12,230.9 Da). […]

[3] = case 1, day 3 after tocilizumab

hepcidin
half-life of hepcidin in serum (IL-6 receptor; inferred from the drop in hepcidin after tocilizumab): short

tocilizumab
serum hepcidin-25 level (IL-6 receptor; both Castleman's disease cases, within a single day after the first dose of tocilizumab): downregulation; also recorded: drastically reduced | urine level of hepcidin-20 (IL-6 receptor; [3]): dramatically reduced | urine level of hepcidin-25 (IL-6 receptor; [3]): dramatically reduced | high CRP levels, anemia, and hypoalbuminemia (IL-6 receptor; cases 1 and 2, up to 14 days after start of treatment): alleviated | serum ferritin level (IL-6 receptor; cases 1 and 2 after tocilizumab): reduced slowly

hepcidin-25 [2,789 m/z]
removal rate by hemodialysis [1]: 46±23% | removal rate by hemodialysis ([1]; listed as hepcidin-25): 46%

hepcidin-20 (ICIFCCGCCHRSKCGMCCKT; listed as Homo sapiens) [2,192 m/z]
removal rate by hemodialysis [1]: 45±19%

[Fe] [iron]
expression of the serum 2,192 m/z peak (hepcidin-20) ([2]; i.v. iron for eight weeks): increased | intensity of the serum peak at 2,789 m/z (hepcidin-25) ([2]; i.v. iron for eight weeks): increased gradually | serum ferritin level after iron administration ([2]; increased from 11.3 ng/ml, 40 mg iron i.v. twice a week for eight weeks, person on hemodialysis): 273 ng/mL
